Measured values taken from US20160206764A1 (ONCOINVENT, published 2016).

Columns and labels:
[1] = target: CD146 (melanoma cell adhesion molecule (MCAM), cell surface glycoprotein MUC18), endogenous on human tumor cell lines (human) (UniProt P43121); assay: MelJRpost3.3 cells pre-treated with OJ97cMUC18; competitor/tracer ^125I-OI-3
[2] = target: T1, CD146 (melanoma cell adhesion molecule (MCAM), cell surface glycoprotein MUC18), endogenous on human tumor … (human, UniProt P43121 24-646); assay: saturation binding of ^125I-OI-3 to Mel 3.3 melanoma cells, Scatchard plot
T1 construct: whole, on cells; Also used here for the endogenous protein in lysates and tissue sections of these cells (Western blot, immunoprecipitation, IHC); also called Mel-CAM

[3] = target: T1, CD146 (melanoma cell adhesion molecule …); assay: saturation binding of ^125I-OI-3 to Mel 3.3 melanoma cells, Ka=1/Kd
[4] = target: T1, CD146 (melanoma cell adhesion molecule …); assay: saturation binding of ^125I-OI-3 to Mel 3.3 melanoma cells, interpolation of binding plot at half βmax

| specific binding in % of ^125I-OI-3 after pre-treatment (no pretreatment = 100%) [1] | Kd [2] | Ka [3] | Kd [4] | Molecule |
| --- | --- | --- | --- | --- |
| 101% | – | – | – | commercial murine monoclonal anti-CD146 (OJ79c MUC18) (antibody) |
| – | ~3.1 nM | ~3.2e+08 M⁻¹ | 3.1 nM | OI-3 murine monoclonal antibody (antibody, V domains shown, also called ^177Lu-OI-3) VH: EVQLQQSGPELVKTGASVKISCKASGYSFTGYYIHWVKQSHGKSLEWIGYISNYNGATTYSQEFKGKATFTVDRSSRIAYMQFTGLTSEDSAVYYCAGNSWGDWYFDVWGAGTTVTVSS VL: DVVMTQTPLSLPVSLGDQASISCRSSQSLVHSNGNTYLHWYLQKPGQSPKLLIYKVSNRFSGVPDRFSGSGSGTDFTLKISRVEAEDLGVYFCSQSTHVSTFGGGTKLEIK |
